In IntAct's records for PubMed 19914239:

B1: Folliculin (Rattus norvegicus (Rat)), Q76JQ2 (parent)
chain: MNAIVALCHFCELHGPRTLFCTEVLHAPLPQGAGSGDSPGQVEQAEEEEGGIQMSSRVRAHSPAEGASTDSSSPGPKKSDMCEGCRSLAVGHPGYISHDKETSIKYVSHQHPNHPQLFSIVRQACVRSLSCEVCPGREGPIFFGDEQHGFVFSHTFFIKDSLARGFQRWYSIIAIMMDRIYLINSWPFLLGKIRGIISELQGKALKVFEAEQFGCPQRAQRMNTAFTPFLHQRNGNAARSLTSLTSDDNLWACLHTSFAWLLKACGSRLTEKLLEGAPTEDTLVQMEKLADLEEESESWDNSEAEEEEKAPATAEGAEGRELASCPTESSFLSACGSWQPPKLSVFKSLRHMRQVLGAPSFRMLAWHVLMGNQVIWKSRDVNLVHSAFEVLRTMLPVGCVRIIPYSSQYEEAYRCNFLGLSPPVPIPAHVLASEFVVVVEVHTATRSNPHPAGCEDDQSLSKYEFVVTSGSPVAADRVGPTILNKMEAALTNQNLSVDVVDQCLVCLKEEWMNKVKVLFKFTKVDSRPKEDTQKLLSVLGASEEDNVKLLKFWMTGLSKTYKSHLMSTVRSPTAAESRN

Variants of: B1
Details: with aapk1_rat Prkaa1, P54645
Sequence of aapk1_rat Prkaa1, P54645 (P54645 whole entry): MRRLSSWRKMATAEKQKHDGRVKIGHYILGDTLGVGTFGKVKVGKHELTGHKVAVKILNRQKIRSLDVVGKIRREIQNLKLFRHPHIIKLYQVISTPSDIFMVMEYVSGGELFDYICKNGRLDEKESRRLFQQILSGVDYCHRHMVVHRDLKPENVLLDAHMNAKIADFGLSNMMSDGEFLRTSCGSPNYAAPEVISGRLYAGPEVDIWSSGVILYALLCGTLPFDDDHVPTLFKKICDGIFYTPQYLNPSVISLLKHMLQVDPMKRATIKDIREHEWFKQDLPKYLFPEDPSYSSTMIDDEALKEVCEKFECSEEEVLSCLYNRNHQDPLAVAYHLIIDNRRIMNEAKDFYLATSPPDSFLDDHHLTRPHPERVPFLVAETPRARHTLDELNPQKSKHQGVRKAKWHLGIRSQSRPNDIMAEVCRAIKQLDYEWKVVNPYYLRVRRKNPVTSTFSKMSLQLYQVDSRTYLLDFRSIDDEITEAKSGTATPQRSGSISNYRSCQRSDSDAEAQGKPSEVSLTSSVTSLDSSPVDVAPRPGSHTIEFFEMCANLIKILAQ

effect of a mutation on the interaction | Variant
decreasing interaction | MNAIVALCHFCELHGPRTLFCTEVLHAPLPQGAGSGDSPGQVEQAEEEEGGIQMSSRVRAHAPAEGASTDSSSPGPKKSDMCEGCRSLAVGHPGYISHDKETSIKYVSHQHPNHPQLFSIVRQACVRSLSCEVCPGREGPIFFGDEQHGFVFSHTFFIKDSLARGFQRWYSIIAIMMDRIYLINSWPFLLGKIRGIISELQGKALKVFEAEQFGCPQRAQRMNTAFTPFLHQRNGNAARSLTSLTSDDNLWACLHTSFAWLLKACGSRLTEKLLEGAPTEDTLVQMEKLADLEEESESWDNSEAEEEEKAPATAEGAEGRELASCPTESSFLSACGSWQPPKLSVFKSLRHMRQVLGAPSFRMLAWHVLMGNQVIWKSRDVNLVHSAFEVLRTMLPVGCVRIIPYSSQYEEAYRCNFLGLSPPVPIPAHVLASEFVVVVEVHTATRSNPHPAGCEDDQSLSKYEFVVTSGSPVAADRVGPTILNKMEAALTNQNLSVDVVDQCLVCLKEEWMNKVKVLFKFTKVDSRPKEDTQKLLSVLGASEEDNVKLLKFWMTGLSKTYKSHLMSTVRSPTAAESRN [S62A]

Variants of: B1
Details: with aapk1_rat Prkaa1, P54645
Remark: another data set of the same source

effect of a mutation on the interaction | Variant
increasing interaction | MNAIVALCHFCELHGPRTLFCTEVLHAPLPQGAGSGDSPGQVEQAEEEEGGIQMSSRVRAHDPAEGASTDSSSPGPKKSDMCEGCRSLAVGHPGYISHDKETSIKYVSHQHPNHPQLFSIVRQACVRSLSCEVCPGREGPIFFGDEQHGFVFSHTFFIKDSLARGFQRWYSIIAIMMDRIYLINSWPFLLGKIRGIISELQGKALKVFEAEQFGCPQRAQRMNTAFTPFLHQRNGNAARSLTSLTSDDNLWACLHTSFAWLLKACGSRLTEKLLEGAPTEDTLVQMEKLADLEEESESWDNSEAEEEEKAPATAEGAEGRELASCPTESSFLSACGSWQPPKLSVFKSLRHMRQVLGAPSFRMLAWHVLMGNQVIWKSRDVNLVHSAFEVLRTMLPVGCVRIIPYSSQYEEAYRCNFLGLSPPVPIPAHVLASEFVVVVEVHTATRSNPHPAGCEDDQSLSKYEFVVTSGSPVAADRVGPTILNKMEAALTNQNLSVDVVDQCLVCLKEEWMNKVKVLFKFTKVDSRPKEDTQKLLSVLGASEEDNVKLLKFWMTGLSKTYKSHLMSTVRSPTAAESRN [S62D]
